Assay results from patent US20260193293A1, “PEPTIDES CAPABLE OF INHIBITING PROTEIN-PROTEIN INTERACTIONS AT GABAB1A SUBUNIT AND USES THEREOF” (UNIVERSITY OF COPENHAGEN, priority 2022, published 2026).

Biological target: Sushi domains (SD1/2) protein of the GABAB1a (GB1a) subunit, recombinant
Test: FP competition

Sushi domains (SD1/2) protein of the GABAB1a (GB1a) subunit, recombinant, sequence (Q9Z0U4 29-158): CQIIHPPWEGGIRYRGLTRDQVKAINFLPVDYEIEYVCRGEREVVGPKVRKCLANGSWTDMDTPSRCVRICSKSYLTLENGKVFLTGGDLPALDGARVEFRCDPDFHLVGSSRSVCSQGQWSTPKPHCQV

Binder	Ki [nM]
Ac-EDDADVWWGGADTD-NH2	660
Ac-EDDSDVAWGGADTD-NH2	8790
Ac-PWAIVWGPTVSREDGGDPNS-NH2	706
Ac-EDASDVWWGGADTD-NH2	1830
Ac-EEDDSDVWWGGAD-NH2	534
Ac-VWGPTVSREDG-NH2	1740
Ac-EEDDSDVWWGGADT-NH2	585
Ac-EEDDSDVWWGG-NH2	1750
Ac-PWAIVWG-NH2	579
Ac-EEDDSDVWWGGA-NH2	1020
Ac-PWAIVWGPTVSREDGG-NH2	561
Ac-PWAIVWGPTVSREDGGDPN-NH2	579
Ac-EADSDVWWGGADTD-NH2	1240
Ac-EDDSAVWWGGADTD-NH2	3080
Ac-PWAIVWGPTV-NH2	561
Ac-EDDSDVWWGAADTD-NH2	731
Ac-DVWWGGADTDYAD-NH2	6100
Ac-SDVWWGGADTDYAD-NH2	2950
Ac-SQYPWAIVWGPTVSREDG-NH2	762
Ac-PWAIVWGPTVSRE-NH2	650

Binder	Ki [nM]
Ac-AIVWGPTVSREDG-NH2	5550
Ac-EDDSDVWWGGAATD-NH2	653
Ac-PWAIVW-NH2	706
Ac-PWAIVWGP-NH2	597
Ac-PWAIVWGPT-NH2	716
Ac-TETEFIAW-NH2	1010
Ac-IVWGPTVSREDG-NH2	15700
Ac-IAWGPTGDED-NH2	38000
Ac-VWWGGADTDYAD-NH2	60800
Ac-DDSDVWWGGADTDYAD-NH2	517
Ac-DSDVWWGGADTDYAD-NH2	1500
Ac-PWAIVWGPTVSREDGGDP-NH2	597
Ac-SSQYPWAIVWGPTVSREDG-NH2	29900
Ac-EEDDSDVWWG-NH2	12800
Ac-EEDDSDVWW-NH2	1790
Ac-QYPWAIVWGPTVSREDG-NH2	650
Ac-PWAIVWGPTVSREDGGD-NH2	716
Ac-TETEFIAWGP-NH2	574
Ac-ADDSDVWWGGADTD-NH2	803
Ac-TETEFIAWG-NH2	2470

The next lines start with the values.

Ki [nM]	Binder
341	Ac-EEDDSDVWWGGADTD-NH2
433	Ac-PWAIVWGPTVSR-NH2
356	Ac-EEDDSDVWWGGADTDYADGGED-NH2
248	Ac-TETEFIAWGPTG-NH2
351	Ac-EEDDSDVWWGGADTDYADGGE-NH2
299	Ac-EEDDSDVWWGGADTDYA-NH2
236	Ac-TETEFIAWGPT-NH2
500	Ac-ADAEEDDSDVWWGGADTDYAD-NH2
341	Ac-EEDDSDVWWGGADTDYADGG-NH2
284	Ac-SADAEEDDSDVWWGGADTDYAD-NH2
281	Ac-EDDSDVWWGGADTDYAD-NH2
247	Ac-DAEEDDSDVWWGGADTDYAD-NH2
69	Ac-TETEFIAWGPTGDE-NH2
301	Ac-EEDDSDVWWGGADTDY-NH2
112	Ac-EFIAWGPTGDED-NH2
433	Ac-YPWAIVWGPTVSREDG-NH2
513	Ac-DSADAEEDDSDVWWGGADTDYAD-NH2
463	Ac-PWAIVWGPTVS-NH2
392	Ac-EEDDSDVWWGGADTDYADGGEDK-NH2
30	Ac-PTTETEFIAWGPTGDED-NH2
97	Ac-TETEFIAWGPTGD-NH2
118	Ac-FIAWGPTGDED-NH2
36	Ac-TETEFIAWGPTGDEDA-NH2
485	Ac-EDDSDVWWAGADTD-NH2
102	Ac-TEFIAWGPTGDED-NH2
32	Ac-TTETEFIAWGPTGDED-NH2
343	Ac-EEDDSDVWWGGADTDYADG-NH2
47	Ac-TETEFIAWGPTGDEDAL-NH2
